# Reference: publication PMC2148137 (The Journal of Cell Biology, 1998)
# B1: radiolabeled Cdc31p purified from bacteria (natural protein, S. cerevisiae, UniProt P06704 1-161, looked up)
# chain: MSKNRSSLQSGPLNSELLEEQKQEIYEAFSLFDMNNDGFLDYHELKVAMKALGFELPKREILDLIDEYDSEGRHLMKYDDFYIVMGEKILKRDPLDEIKRAFQLFDDDHTGKISIKNLRRVAKELGETLTDEELRAMIEEFDLDGDGEINENEFIAICTDS
# modifications: radiolabeled
# Target: T1, GST–Kic1p full-length fusion (S. cerevisiae, UniProt P38692 1-1080)
# T1 sequence (looked up): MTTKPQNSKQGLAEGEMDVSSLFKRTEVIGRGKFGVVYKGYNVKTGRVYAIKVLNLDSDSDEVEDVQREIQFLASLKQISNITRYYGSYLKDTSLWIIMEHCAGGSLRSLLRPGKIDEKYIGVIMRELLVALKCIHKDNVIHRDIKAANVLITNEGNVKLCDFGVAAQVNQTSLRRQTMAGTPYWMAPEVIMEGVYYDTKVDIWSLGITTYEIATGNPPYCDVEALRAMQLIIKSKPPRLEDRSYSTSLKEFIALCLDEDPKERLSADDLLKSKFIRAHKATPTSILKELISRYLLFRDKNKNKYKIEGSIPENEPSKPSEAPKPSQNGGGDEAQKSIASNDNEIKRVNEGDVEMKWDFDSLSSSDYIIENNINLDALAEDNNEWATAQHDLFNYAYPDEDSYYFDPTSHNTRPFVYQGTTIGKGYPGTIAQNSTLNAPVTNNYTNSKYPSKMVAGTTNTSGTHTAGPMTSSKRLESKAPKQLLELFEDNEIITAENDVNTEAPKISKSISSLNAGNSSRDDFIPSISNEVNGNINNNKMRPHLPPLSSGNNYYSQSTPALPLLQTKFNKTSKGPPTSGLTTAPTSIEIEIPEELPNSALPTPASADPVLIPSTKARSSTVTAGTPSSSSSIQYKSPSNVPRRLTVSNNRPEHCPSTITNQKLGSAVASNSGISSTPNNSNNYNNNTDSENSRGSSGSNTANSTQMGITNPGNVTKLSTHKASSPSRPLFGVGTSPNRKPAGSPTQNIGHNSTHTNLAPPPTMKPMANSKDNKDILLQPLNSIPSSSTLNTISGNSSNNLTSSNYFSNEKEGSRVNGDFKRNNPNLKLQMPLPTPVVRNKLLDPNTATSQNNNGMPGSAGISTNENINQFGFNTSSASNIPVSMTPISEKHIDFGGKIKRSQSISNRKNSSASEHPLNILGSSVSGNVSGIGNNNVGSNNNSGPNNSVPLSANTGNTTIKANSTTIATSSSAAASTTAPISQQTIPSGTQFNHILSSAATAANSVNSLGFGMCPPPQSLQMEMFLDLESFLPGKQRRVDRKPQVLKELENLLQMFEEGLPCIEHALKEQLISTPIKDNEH
# Assay: far-Western, overlay or dot blot
binder,measurement,value
B1,binding result,binds
